Test results taken from article PMC4584387 (Journal of Medicinal Chemistry, 2015).
Where no end group is shown, it is not given here.

Molecular target: Full-length human menin (human, UniProt O00255 1-610)
Test: fluorescence polarisation

Chain of Full-length human menin (O00255 whole entry): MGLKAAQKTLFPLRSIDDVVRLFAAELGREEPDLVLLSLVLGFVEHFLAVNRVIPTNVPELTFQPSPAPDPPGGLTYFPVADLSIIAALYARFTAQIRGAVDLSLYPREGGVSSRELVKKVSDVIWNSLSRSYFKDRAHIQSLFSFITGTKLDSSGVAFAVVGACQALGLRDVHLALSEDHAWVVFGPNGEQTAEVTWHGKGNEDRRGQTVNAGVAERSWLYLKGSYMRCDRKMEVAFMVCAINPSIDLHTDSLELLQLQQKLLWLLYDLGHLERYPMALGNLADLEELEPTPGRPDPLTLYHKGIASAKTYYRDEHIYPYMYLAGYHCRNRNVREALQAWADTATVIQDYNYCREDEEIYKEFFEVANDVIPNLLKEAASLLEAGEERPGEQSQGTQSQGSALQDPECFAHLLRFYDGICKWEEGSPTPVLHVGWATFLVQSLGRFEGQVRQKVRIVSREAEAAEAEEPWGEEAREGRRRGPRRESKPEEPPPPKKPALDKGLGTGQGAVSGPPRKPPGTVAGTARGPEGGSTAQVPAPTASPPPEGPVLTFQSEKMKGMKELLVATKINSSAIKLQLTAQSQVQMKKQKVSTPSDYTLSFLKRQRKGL

B1: FITC-MBM1 peptide of MLL (residues 4-15) (peptide, UniProt Q03164 4-15, looked up)
peptide: SCRWRFPARPGT
modifications: also: FITC label, position not given here
binding result: binds
